For one molecule, number of meshes results are on record in article PMC10309634, “Computer simulation approach to the identification of visfatin-derived angiogenic peptides” (PLOS ONE, 2023).

The subject of this experiment is HUVECs. The experiment in a line: In vitro tube formation assay on Matrigel. In kind it is cell-based, human. The conditions noted are these: positive controls, 4 hours on Matrigel, compared to the control group. As for the experimental part:
HUVECs (2×10^4 cells/well) were seeded on a layer of polymerized Matrigel and treated with or without visfatin-derived peptides. The Matrigel culture was incubated at 37°C in the EGM supplemented with EGM-Supplement Mix® containing 1% FBS. After 4 hours, changes in the cell morphology were observed using a phase-contrast microscope and photographed at 40× magnification. Each sample was assayed in duplicate, and independent experiments were repeated three times. Angiogenesis was analyzed with ImageJ software using an angiogenesis analyzer (Bethesda, MD, USA).

B1: visfatin: Commercial recombinant mouse visfatin (Adipogen Life Science), positive control (protein, UniProt Q99KQ4 1-491, looked up)
Nicotinamide …: MNAAAEAEFNILLATDSYKVTHYKQYPPNTSKVYSYFECREKKTENSKVRKVKYEETVFYGLQYILNKYLKGKVVTKEKIQEAKEVYREHFQDDVFNERGWNYILEKYDGHLPIEVKAVPEGSVIPRGNVLFTVENTDPECYWLTNWIETILVQSWYPITVATNSREQKKILAKYLLETSGNLDGLEYKLHDFGYRGVSSQETAGIGASAHLVNFKGTDTVAGIALIKKYYGTKDPVPGYSVPAAEHSTITAWGKDHEKDAFEHIVTQFSSVPVSVVSDSYDIYNACEKIWGEDLRHLIVSRSTEAPLIIRPDSGNPLDTVLKVLDILGKKFPVTENSKGYKLLPPYLRVIQGDGVDINTLQEIVEGMKQKKWSIENVSFGSGGALLQKLTRDLLNCSFKCSYVVTNGLGVNVFKDPVADPNKRSKKGRLSLHRTPAGNFVTLEEGKGDLEEYGHDLLHTVFKNGKVTKSYSFDEVRKNAQLNIEQDVAPH
With B1, the number of meshes result is “not significantly different”.
